{"source": "paper PMC3771942", "about": "(Molecular Biology of the Cell, 2013)", "binders": {"B1": {"name": "mCh-LARG-W769A (natural protein, UniProt Q9NZN5 1-1544, looked up)", "chain": "MSGTQSTITDRFPLKKPIRHGSILNRESPTDKKQKVERIASHDFDPTDSSSKKTKSSSEESRSEIYGLVQRCVIIQKDDNGFGLTVSGDNPVFVQSVKEDGAAMRAGVQTGDRIIKVNGTLVTHSNHLEVVKLIKSGSYVALTVQGRPPGSPQIPLADSEVEPSVIGHMSPIMTSPHSPGASGNMERITSPVLMGEENNVVHNQKVEILRKMLQKEQERLQLLQEDYNRTPAQRLLKEIQEAKKHIPQLQEQLSKATGSAQDGAVVTPSRPLGDTLTVSEAETDPGDVLGRTDCSSGDASRPSSDNADSPKSGPKERIYLEENPEKSETIQDTDTQSLVGSPSTRIAPHIIGAEDDDFGTEHEQINGQCSCFQSIELLKSRPAHLAVFLHHVVSQFDPATLLCYLYSDLYKHTNSKETRRIFLEFHQFFLDRSAHLKVSVPDEMSADLEKRRPELIPEDLHRHYIQTMQERVHPEVQRHLEDFRQKRSMGLTLAESELTKLDAERDKDRLTLEKERTCAEQIVAKIEEVLMTAQAVEEDKSSTMQYVILMYMKHLGVKVKEPRNLEHKRGRIGFLPKIKQSMKKDKEGEEKGKRRGFPSILGPPRRPSRHDNSAIGRAMELQKARHPKHLSTPSSVSPEPQDSAKLRQSGLANEGTDAGYLPANSMSSVASGASFSQEGGKENDTGSKQVGETSAPGDTLDGTPRTLNTVFDFPPPPLDQVQEEECEVERVTEHGTPKPFRKFDSVAFGESQSEDEQFENDLETDPPNAQQLVSREVLLGLKPCEIKRQEVINELFYTERAHVRTLKVLDQVFYQRVSREGILSPSELRKIFSNLEDILQLHIGLNEQMKAVRKRNETSVIDQIGEDLLTWFSGPGEEKLKHAAATFCSNQPFALEMIKSRQKKDSRFQTFVQDAESNPLCRRLQLKDIIPTQMQRLTKYPLLLDNIAKYTEWPTEREKVKKAADHCRQILNYVNQAVKEAENKQRLEDYQRRLDTSSLKLSEYPNVEELRNLDLTKRKMIHEGPLVWKVNRDKTIDLYTLLLEDILVLLQKQDDRLVLRCHSKILASTADSKHTFSPVIKLSTVLVRQVATDNKALFVISMSDNGAQIYELVAQTVSEKTVWQDLICRMAASVKEQSTKPIPLPQSTPGEGDNDEEDPSKLKEEQHGISVTGLQSPDRDLGLESTLISSKPQSHSLSTSGKSEVRDLFVAERQFAKEQHTDGTLKEVGEDYQIAIPDSHLPVSEERWALDALRNLGLLKQLLVQQLGLTEKSVQEDWQHFPRYRTASQGPQTDSVIQNSENIKAYHSGEGHMPFRTGTGDIATCYSPRTSTESFAPRDSVGLAPQDSQASNILVMDHMIMTPEMPTMEPEGGLDDSGEHFFDAREAHSDENPSEGDGAVNKEEKDVNLRISGNYLILDGYDPVQESSTDEEVASSLTLQPMTGIPAVESTHQQQHSPQNTHSDGAISPFTPEFLVQQRWGAMEYSCFEIQSPSSCADSQSQIMEYIHKIEADLEHLKKVEESYTILCQRLAGSALTDKHSDKS"}}, "target": "GST-Rho-G17A (UniProt P61586 1-193, G17A)", "sequence (P61586 whole entry G17A)": "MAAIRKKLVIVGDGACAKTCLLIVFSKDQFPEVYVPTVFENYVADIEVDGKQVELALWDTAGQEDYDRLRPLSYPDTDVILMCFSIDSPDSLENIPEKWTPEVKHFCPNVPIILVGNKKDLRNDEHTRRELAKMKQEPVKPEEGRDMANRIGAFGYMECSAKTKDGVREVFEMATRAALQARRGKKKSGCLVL", "experiment": "pull-down"}
{"binder": "B1", "values": [{"measurement": "fold decrease in pull down against wild-type LARG", "value": 5, "unit": "fold"}]}
